# Results published in CN112079918A (CANVEST WUHAN BIOTECHNOLOGY CO LTD, dated 2020).
# Assays:
# [1] = molecular target: SH02 HA (A/Shanghai/2/2013 H7N9) hemagglutinin protein (influenza A virus A/Shanghai/2/2013 (H7N9)); experiment: ELISA, P51C05 IgG on HA protein
# [2] = molecular target: 17SF HA (A/Guangdong/17SF003/2016) hemagglutinin protein (influenza A virus A/Guangdong/17SF003/2016 (H7N9)); experiment: ELISA, P51C05 IgG on HA protein
# [3] = molecular target: BSA (UniProt P02769 25-607); experiment: ELISA
# BSA, sequence (P02769 25-607 limits assumed): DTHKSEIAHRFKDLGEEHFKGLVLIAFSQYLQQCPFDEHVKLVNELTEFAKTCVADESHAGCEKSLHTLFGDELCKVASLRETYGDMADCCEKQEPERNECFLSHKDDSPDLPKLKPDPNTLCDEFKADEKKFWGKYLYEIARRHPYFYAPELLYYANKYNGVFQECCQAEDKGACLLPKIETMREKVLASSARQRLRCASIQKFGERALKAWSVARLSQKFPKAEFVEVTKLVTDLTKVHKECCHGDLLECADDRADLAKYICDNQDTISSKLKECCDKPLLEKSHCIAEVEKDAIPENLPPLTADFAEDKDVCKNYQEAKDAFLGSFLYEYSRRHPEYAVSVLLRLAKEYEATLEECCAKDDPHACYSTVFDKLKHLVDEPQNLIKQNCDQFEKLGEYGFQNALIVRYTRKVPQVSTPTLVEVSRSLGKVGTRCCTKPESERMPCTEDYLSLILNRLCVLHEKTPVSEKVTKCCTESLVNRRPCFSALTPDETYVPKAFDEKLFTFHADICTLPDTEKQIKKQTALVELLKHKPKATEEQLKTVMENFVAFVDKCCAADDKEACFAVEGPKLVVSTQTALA
binder,measurement,setting,value
"H7N9病毒特异性识别抗体P51C05 (IgG形式) (antibody, V domains shown) VH: EVQLVQSGSELKKPGASVKVSCKASGYTFTSYTMNWVRQAPGQGLEWMGWINTNTGNPTYAQGFTGRFVFSLDTSVSTAYLQISSLKTEDTAVYYCARGVYGMDVWGQGTTVTVSS VL: EIVLTQSPGTLSLSPGERATFSCRASQTVSNYLAWYQQKVGQAPRLLIYDASNRATGIPARFSGSGSGTDFTLTISSLEPEDFAVYYCQQRYNWPLTFGGGTKVEIKG",EC50,[1],< 1 nM
same,EC50,[2],< 1 nM
same,binding result,[3],no binding
